PMC7001106, “Lipid Interactions of a Ciliary Membrane TRP Channel: Simulation and Structural Studies of Polycystin-2” (Structure(London, England:1993), 2020)

Biological target: the molecule itself
Assay: cryo-EM structure; purified PC2 185-723 in UDM detergent, incubated overnight at 4°C with 18:0-20:4 PI(4,5)P2 (1:20, tetramer:lipid) or 18:1 PI(3,5)P2 (1:40); C4 symmetry imposed in the reconstruction

B1: Polycystin-2, truncated construct hPC2: Pro185 - Asp723 (domain or fragment, human, UniProt Q13563 185-723, looked up)
chain: PRVAWAERLVRGLRGLWGTRLMEESSTNREKYLKSVLRELVTYLLFLIVLCILTYGMMSSNVYYYTRMMSQLFLDTPVSKTEKTNFKTLSSMEDFWKFTEGSLLDGLYWKMQPSNQTEADNRSFIFYENLLLGVPRIRQLRVRNGSCSIPQDLRDEIKECYDVYSVSSEDRAPFGPRNGTAWIYTSEKDLNGSSHWGIIATYSGAGYYLDLSRTREETAAQVASLKKNVWLDRGTRATFIDFSVYNANINLFCVVRLLVEFPATGGVIPSWQFQPLKLIRYVTTFDFFLAACEIIFCFFIFYYVVEEILEIRIHKLHYFRSFWNCLDVVIVVLSVVAIGINIYRTSNVEVLLQFLEDQNTFPNFEHLAYWQIQFNNIAAVTVFFVWIKLFKFINFNRTMSQLSTTMSRCAKDLFGFAIMFFIIFLAYAQLAYLVFGTQVDDFSTFQECIFTQFRIILGDINFAEIEEANRVLGPIYFTTFVFFMFFILLNMFLAIINDTYSEVKSDLAQQKAEMELSDLIRKGYHKALVKLKLKKNTVD
notes: Polycystin-2 (PC2, PKD2, TRPP1), human, residues Pro185 to Asp723; For cryo-EM the protein was treated with alpha-L-fucosidase, PNGase F and TEV protease (the tag stands after a TEV site); The forward primer carries an ATG before the Pro185 codon; Homo-tetramer; also called PKD2; TRPP1; not shown: His10, C-terminal, cleaved; FLAG, C-terminal, cleaved
stoichiometry N: 4
